Tests used:
[1] = substrate: O=C(O)c1c(O)cccc1O; assay: LC-MS glucosyltransferase assay; type: biochemical, Camellia sinensis; details: 2.5 mM UDP-glucose, optimal conditions (pH 8.0-8.5, 30°C), 0-300 μM substrate
[2] = substrate: O=C(O)c1ccccc1O; assay: LC-MS glucosyltransferase assay; type: biochemical, Camellia sinensis; details: 2.5 mM UDP-glucose, optimal conditions (pH 8.0-8.5, 30°C), 0-300 μM substrate

B1: CsUGT74B5 (rCsUGT74B5) (Camellia sinensis) (protein)
chain: MEQRNHGGHVVVLPYPSQGHINPLLQFAKRLASKGVKATLATTHYTVKSICVPNIAVEPISDGFDNGGFTQARAEDVYLKSLRENGSRTLSQLIEKHKNTNFPINCVVYDSFFPWALDVAKTHGIYGAPFFTNSATVCAIFCHVHHGLVKLPVKVEELPLVLPGIPPLNLVDLPSFVQAPESYPAYLAMKLSQYSNLDKADWVFGNTFEELEGEAVKNVLELWPGKMIGPMVPSAYLDGRIEEDKGYGASLWKPLSSDCAKWLEAKPSQSVVYVSFGSMVSLTEEQMEEMAWGLKGSNLDFIWVVRESEITKLPSEFTNSTAQEKGLIVTWCNQLEMLAHQAIGCFVTHCGWNSTLEGLSLGVPMVGVPKWTDQLTDAKFIEEIWGVGFRAKEDEKGVVRREELMGCLKEVMEGERSVEIRKNCCKWKELAKEAISEGGSSDKSIDEFVEQLKSGNEKGVVKYLTNGNGHY
notes: full CDS in pMAL-c2X (N-terminal MBP fusion, tag cleavage not mentioned), expressed in E. coli Novablue (DE3), amylose resin purified
[1]
  Km: 15.26 µM
[2]
  Km: 42.01 µM
